How the values were obtained:
[1] = test system: RcuCCA (CCA-adding enzyme, tRNA nucleotidyltransferase) (Romanomermis culicivorax); assay: EMSA; conditions: 6 mM Mg2+; HEPES/KOH pH 7.6, 30 mM KCl, 6 mM MgCl2, 20 C, 10 min; 0.5 pmol tRNA, 0-4 uM enzyme; 5% native PAGE; n = 3
[2] = test system: Chimera E (HsaCCA with RcuCCA beta-turn region) (Homo sapiens / Romanomermis culicivorax chimera); assay: EMSA; conditions: 6 mM Mg2+; HEPES/KOH pH 7.6, 30 mM KCl, 6 mM MgCl2, 20 C, 10 min; 0.5 pmol tRNA, 0-4 uM enzyme; 5% native PAGE; n = 3

Row | Substance | Kd [1] | Kd [2]
1 | mt-tRNAIle (armless, lacking CCA) | 1400 nM | 1800 nM
2 | GCGGAUUUAGCUCAGUUGGGAGAGCGCCAGACUGAAGAUCUGGAGGUCCUGUGUUCGAUCCACAGAAUUCGCA [tRNAPhe (lacking CCA)] | 1300 nM | 
